Data on 44 molecules can be found in paper PMC5261807 (2017).

Non-standard residues stand in square brackets, D forms with d. Primed or numbered codes have the meaning given here. No end group written: not given here. Me2a″ = asymmetric dimethylarginine (Rme2a); Arg(Me2a) = CN(C)C(=N)NCCC[C@H](N)C(=O)O; Lys(Me3) = C[N+](C)(C)CCCC[C@H](N)C(=O)O; Arg(Me2s) = CN=C(NC)NCCC[C@H](N)C(=O)O; pT = C[C@@H](OP(=O)(O)O)[C@H](N)C(=O)O; Lys(Me2) = CN(C)CCCC[C@H](N)C(=O)O; Me2s = symmetric dimethyl (on Arg); pS = N[C@@H](COP(=O)(O)O)C(=O)O; Lys(Me) = CNCCCC[C@H](N)C(=O)O; Me3 = trimethyl (on Lys)

Assay [1] deals with T1, Bdf1 bromodomain 1 (GST-tagged, WT) (Saccharomyces cerevisiae (strain ATCC …, UniProt P35817)).
T1 chain: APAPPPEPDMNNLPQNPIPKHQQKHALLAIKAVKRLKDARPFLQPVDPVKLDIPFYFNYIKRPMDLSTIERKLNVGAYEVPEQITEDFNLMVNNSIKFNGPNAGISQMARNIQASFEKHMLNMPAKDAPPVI
Nature of the assay: histone peptide array probed with recombinant GST-bromodomain, signal normalised to myc peptide control.

Assay [2] addresses T2, Bdf1 bromodomain 2 (GST-tagged, WT) (Saccharomyces cerevisiae (strain ATCC …, UniProt P35817)).
T2 chain: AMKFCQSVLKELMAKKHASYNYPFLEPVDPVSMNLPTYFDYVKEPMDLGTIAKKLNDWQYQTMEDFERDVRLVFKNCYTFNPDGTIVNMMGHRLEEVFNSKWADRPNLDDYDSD
The description is as above.

In the case of [pS]GRGK(Ac)QGGKARAK(Ac)AKSRSS, the binding score in assay [1] stood at 0; in assay [2], 0.231.

Turning to PRKQLATKAARK[pS]APATGG [H3 16-35], the binding score in assay [1] and in assay [2] was 0 throughout.

For ARTKQTARKSTGGKAPRKQ (A Rme2a T Kme1 Q T A Rme2a Kac S T G G K A P R K Q), the binding score was found to be 0.0124 in assay [1] and 0.00325 in assay [2].

As for SGRGKGGKGLGKGGAKRHR (pS G R G K G G K G L G K G G A K R H R), the figures for the binding score in assay [1] and in assay [2] were 0 and 0.00305, respectively.

Consider A[Arg(Me2a)]T[Lys(Me3)]QTA[Arg(Me2s)][Lys(Me)]STGGKAPRKQ, for which the binding score in assay [1] and in assay [2] was 0 each time.

As to ARTKQTARKSTGGKAPRKQ (A R T K Q T A R Kac S T G G Kac A P R K Q), the binding score in assay [1] was 0.108; in assay [2], 0.209.

For ARTKQTARKSTGGKAPRKQ (A Rme2s T Kac Q T A Rme2s Kac S T G G K A P R K Q), the values for the binding score in assay [1] and in assay [2] were 0.0405 and 0.131, respectively.

On to ARTKQTARKSTGGKAPRKQ (A Rme2a T Kme2 Q T A R Kme2 S T G G K A P R K Q), for which the binding score in assay [1] and in assay [2] was 0 throughout.

Turning to A[Arg(Me2a)]TK(Ac)QTA[Arg(Me2s)][Lys(Me3)]STGGKAPRKQ, the binding score in assay [1] came out at 0.00681; in assay [2], 0.00758.

B1: H2a 1-19 (peptide)
chain: SGRGKQGGKARAKAKSRSS
modifications: histone peptides carry modifications given inline in the sequence and in columns 4-7 (Kac, Kme1/2/3, Rme2a/s, Cit, pS/pT); N-terminus free or acetylated
On to B1, for which the results for the binding score in assay [1] and in assay [2] were 0 and 0.0141, respectively.

As to A[Arg(Me2a)][pT][Lys(Me2)]QTARKSTGGKAPRKQ, the figures for the binding score in assay [1] and in assay [2] were 0 and 0.00246, respectively.

Take ARTKQTARKSTGGKAPRKQ (A R T K Q T A Rme2s Kme3 pS T G G K A P R K Q): the binding score turned out to be 0.00305 in assay [1] and 0.00148 in assay [2].

For PDPAK(Ac)SAPAPKK(Ac)GSKKAVT, the binding score in assay [1] was determined as 0; in assay [2], 0.0186.

For the molecule A[Arg(Me2s)]T[Lys(Me2)]QTAR[Lys(Me3)]STGGKAPRKQ, the binding score in assay [1] and in assay [2] was 0 throughout.

ARTKQTA[Arg(Me2a)]K(Ac)[pS][pT]GGKAPRKQ: the binding score was 0.00663 in assay [1] and 0 in assay [2].

As to AR(Me2a″)TK(Ac)QTAR(Me2a″)K(Ac)STGGKAPRKQ, the binding score in assay [1] was determined as 0.0387; in assay [2], 0.0867.

For ARTKQTARKSTGGKAPRKQ (A Rme2s T Kme1 Q T A Rme2s Kme3 S T G G K A P R K Q), the binding score stood at 0.00161 in assay [1] and 0 in assay [2].

On to PDPAKSAPAPKKGSKKAVT (not fully specified), for which the values for the binding score in assay [1] and in assay [2] were 0 and 0.00266, respectively.

Regarding ARTK(Me3)QTAR(Me2s)K(Ac)STGGKAPRKQ, the binding score was determined as 0.0484 in assay [1] and 0.0363 in assay [2].

For the molecule SGRGKGGKGLGKGGAKRHR (pS G Rme2s G Kac G G Kac G L G K G G A K R H R), the binding score amounted to 0.126 in assay [1] and 0.299 in assay [2].

In the case of A[Arg(Me2s)]TK(Ac)QTA[Arg(Me2a)][Lys(Me)]STGGKAPRKQ, the binding score in assay [1] was found to be 0.00161; in assay [2], 0.00384.

On to SGRGKGGKGLGKGGAKRHR (S G Rme2a G Kac G G Kac G L G Kac G G A K R H R), for which the binding score is 0.29 in assay [1] and 0.386 in assay [2].

On to ARTKQTARKSTGGKAPRKQ (A Rme2a T Kac Q T A Rme2s Kac S T G G K A P R K Q), for which the binding score in assay [1] stood at 0.0518; in assay [2] it was 0.0869.

B2: c-myc tag (peptide)
chain: EQKLISEEDLA
modifications: histone peptides carry modifications given inline in the sequence and in columns 4-7 (Kac, Kme1/2/3, Rme2a/s, Cit, pS/pT); N-terminus free or acetylated
For the molecule B2, the binding score in assay [1] and in assay [2] was 1 throughout.

With ARTKQTARKSTGGKAPRKQ (A R T K Q T A R Kme2 pS T G G K A P R K Q), the binding score in assay [1] is 0.00108; in assay [2] it was 0.

Consider SGRGKGGKGLGKGGAKRHR (S G Rme2a G Kac G G K G L G K G G A K R H R), for which the binding score worked out at 0 in assay [1] and 0.0707 in assay [2].

Consider SGRGKGGKGLGKGGAKRHR (S G R G K G G Kac G L G K G G A Kac R H R), for which the binding score worked out at 0.0534 in assay [1] and 0.161 in assay [2].

As to ARTKQTA[Arg(Me2s)][Lys(Me)][pS]TGGKAPRKQ, the binding score in assay [1] came out at 0.00394; in assay [2] it was 0.

On to ARTKQTARKSTGGKAPRKQ (A R T Kme1 Q T A Rme2a Kac S T G G K A P R K Q), for which the binding score turned out to be 0.0217 in assay [1] and 0.00915 in assay [2].

With AR(Me2s)TK(Ac)QTAR(Me2s)K(Me)STGGKAPRKQ, the figures for the binding score in assay [1] and in assay [2] were 0.00161 and 0.00561, respectively.

As to PDPAK(Ac)SAPAPKKG[pS]KKAVT, the binding score in assay [1] stood at 0.00412; in assay [2] it was 0.

As for SGRGKGGKGLGKGGAKRHR (pS G R G Kac G G K G L G K G G A K R H R), the binding score stood at 0.00108 in assay [1] and 0.069 in assay [2].

For A[Arg(Me2s)]T[Lys(Me2)]QTA[Arg(Me2s)][Lys(Me3)]STGGKAPRKQ, the binding score in assay [1] and in assay [2] was 0 in each case.

Regarding ARTKQTA[Arg(Me2s)][Lys(Me2)][pS]TGGKAPRKQ, the binding score in assay [1] is 0.000179; in assay [2], 0.00541.

ARTKQTARKSTGGKAPRKQ (A R T Kme2 Q T A Rme2s Kac S T G G K A P R K Q): the binding score in assay [1] is 0.0301; in assay [2], 0.0564.

As to A[Arg(Me2s)]TK(Me)QTARKSTGGKAPRKQ, the binding score in assay [1] and in assay [2] was 0 each time.

With AR[pT]K(Ac)QTARKSTGGKAPRKQ, the figures for the binding score in assay [1] and in assay [2] were 0.0321 and 0.0271, respectively.

SGRGKGGKGLGKGGAKRHR (S G R G K G G Kac G L G Kac G G A K R H R): the binding score stood at 0.18 in assay [1] and 0.258 in assay [2].

Regarding ARTKQTARKSTGGK(Ac)APRKQ, the binding score in assay [1] amounted to 0.00108; in assay [2], 0.0733.

A[Arg(Me2s)]TK(Ac)QTARKSTGGKAPRKQ: the binding score in assay [1] amounted to 0.0172; in assay [2] it was 0.00482.

Consider ARTKQTARKSTGGKAPRKQ (A Rme2s T Kme2 Q T A Rme2a Kme1 S T G G K A P R K Q), for which the binding score in assay [1] and in assay [2] was 0 throughout.

For SGRGKQGGK(Ac)ARAK(Ac)AKSRSS, the values for the binding score in assay [1] and in assay [2] were 0.0104 and 0.117, respectively.

Consider ARTKQTA[Arg(Me2s)]K(Me)S[pT]GGKAPRKQ, for which the binding score came to 0 in assay [1] and 0.00836 in assay [2].

On to RKSAPATGGVKKPHRYRPG (R K S A P A T G G V Kme1 K P H R Y R P G) [H3 26-45], for which the binding score in assay [1] was 0; in assay [2], 0.00364.
